{
  "source": "paper PMC8420772",
  "key": {"[1]": {"biological_target": "MtMce4A_(39–140) (Mycobacterium tuberculosis H37Rv)", "test": "SEC-MALS; in crystallization buffer (0.1 M MES, 0.7 M ammonium sulfate pH 6.0) after slow heating from 20 to 50°C (0.8°C per minute); supernatant on Superdex 200 10/300"}, "[2]": {"biological_target": "MtMce4A_(39–140) (Mycobacterium tuberculosis H37Rv)", "test": "crystal structure; native protein, 7.5 mg ml^−1; 100 mM sodium HEPES, 100 mM LiCl2, 20% PEG 400 pH 7.5, 22°C; space group P6_(5), 2.9 Å"}},
  "data": [
    {"substance": "MtMce4A_(39–140) (domain or fragment)", "values": [
      {"measurement": "stoichiometry N", "setting": "[1]", "value": 2},
      {"measurement": "stoichiometry N", "setting": "[2]", "value": 2}
    ]}
  ]
}
